Patent US20040043378

Target: T1, wild type HIV-1 Tat protein, FLAG-tagged, expressed in cells
T1 chain: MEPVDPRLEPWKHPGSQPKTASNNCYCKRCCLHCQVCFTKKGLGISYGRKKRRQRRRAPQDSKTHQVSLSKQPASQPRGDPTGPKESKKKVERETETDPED

B1: P/CAF (p300/CBP-associated factor), HA-tagged, expressed in cells (protein)
chain: MSEAGGAGPGGCGAGAGAGAGPGALPPQPAALPPAPPQGSPCAAAAGGSGACGPATAVAAAGTAEGPGGGGSARIAVKKAQLRSAPRAKKLEKLGVYSACKAEESCKCNGWKNPNPSPTPPRADLQQIIVSLTESCRSCSHALAAHVSHLENVSEEEMNRLLGIVLDVEYLFTCVHKEEDADTKQVYFYLFKLLRKSILQRGKPVVEGSLEKKPPFEKPSIEQGVNNFVQYKFSHLPAKERQTIVELAKMFLNRINYWHLEAPSQRRLRSPNDDISGYKENYTRWLCYCNVPQFCDSLPRYETTQVFGRTLLRSVFTVMRRQLLEQARQEKDKLPLEKRTLILTHFPKFLSMLEEEVYSQNSPIWDQDFLSASSRTSQLGIQTVINPPPVAGTISYNSTSSSLEQPNAGSSSPACKASSGLEANPGEKRKMTDSHVLEEAKKPRVMGDIPMELINEVMSTITDPAAMLGPETNFLSAHSARDEAARLEERRGVIEFHVVGNSLNQKPNKKILMWLVGLQNVFSHQLPRMPKEYITRLVFDPKHKTLALIKDGRVIGGICFRMFPSQGFTEIVFCAVTSNEQVKGYGTHLMNHLKEYHIKHDILNFLTYADEYAIGYFKKQGFSKEIKIPKTKYVGYIKDYEGATLMGCELNPRIPYTEFSVIIKKQKEIIKKLIERKQAQIRKVYPGLSCFKDGVRQIPIESIPGIRETGWKPSGKEKSKEPRDPDQLYSTLKSILQQVKSHQSAWPFMEPVKRTEAPGYYEVIRFPMDLKTMSERLKNRYYVSKKLFMADLQRVFTNCKEYNAAESEYYKCANILEKFFFSKIKEAGLIDK
Superinduction of Tat transactivation activity: as much as a 30-fold increase upon P/CAF stimulation
